The series has as its target PRC2 catalytic core (EZH2-EED-SUZ12 VEFS) (UniProt Q15910;O75530;Q15022 1-746;1-441;545-726). The series is described as follows: competition.

PRC2 catalytic core (EZH2-EED-SUZ12 VEFS), sequence (Q15910 whole entry, chain 1 of 3): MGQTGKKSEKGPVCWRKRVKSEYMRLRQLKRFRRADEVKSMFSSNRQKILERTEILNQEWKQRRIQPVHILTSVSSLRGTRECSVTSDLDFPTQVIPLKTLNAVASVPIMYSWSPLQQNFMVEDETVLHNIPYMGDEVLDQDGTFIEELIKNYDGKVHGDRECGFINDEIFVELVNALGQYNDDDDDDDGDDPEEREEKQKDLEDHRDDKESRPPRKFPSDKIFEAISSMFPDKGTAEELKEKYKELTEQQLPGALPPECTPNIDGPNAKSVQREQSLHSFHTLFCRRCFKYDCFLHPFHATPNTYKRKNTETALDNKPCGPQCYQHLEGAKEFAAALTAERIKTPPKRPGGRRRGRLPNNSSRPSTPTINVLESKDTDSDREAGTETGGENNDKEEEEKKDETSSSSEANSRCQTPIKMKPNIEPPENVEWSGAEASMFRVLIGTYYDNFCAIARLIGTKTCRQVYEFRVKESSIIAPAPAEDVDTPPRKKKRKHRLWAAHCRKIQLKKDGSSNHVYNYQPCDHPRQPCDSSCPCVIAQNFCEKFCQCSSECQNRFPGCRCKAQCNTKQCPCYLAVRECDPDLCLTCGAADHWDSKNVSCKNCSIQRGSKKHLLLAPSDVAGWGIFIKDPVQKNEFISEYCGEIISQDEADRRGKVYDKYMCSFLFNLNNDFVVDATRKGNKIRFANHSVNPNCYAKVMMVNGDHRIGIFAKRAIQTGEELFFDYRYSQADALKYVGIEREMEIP
PRC2 catalytic core (EZH2-EED-SUZ12 VEFS), sequence (O75530 whole entry, chain 2 of 3): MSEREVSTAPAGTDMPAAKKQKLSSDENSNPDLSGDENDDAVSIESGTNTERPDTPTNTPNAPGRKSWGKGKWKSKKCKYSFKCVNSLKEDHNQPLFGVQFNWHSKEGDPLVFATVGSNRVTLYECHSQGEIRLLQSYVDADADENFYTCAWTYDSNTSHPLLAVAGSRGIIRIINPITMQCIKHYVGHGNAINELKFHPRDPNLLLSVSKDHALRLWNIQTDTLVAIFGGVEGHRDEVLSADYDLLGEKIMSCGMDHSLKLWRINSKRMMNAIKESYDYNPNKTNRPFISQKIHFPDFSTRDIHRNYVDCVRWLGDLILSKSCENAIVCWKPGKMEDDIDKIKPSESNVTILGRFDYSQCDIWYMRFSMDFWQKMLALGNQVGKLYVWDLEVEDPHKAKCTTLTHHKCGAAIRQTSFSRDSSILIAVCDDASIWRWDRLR
PRC2 catalytic core (EZH2-EED-SUZ12 VEFS), sequence (Q15022 545-726, chain 3 of 3): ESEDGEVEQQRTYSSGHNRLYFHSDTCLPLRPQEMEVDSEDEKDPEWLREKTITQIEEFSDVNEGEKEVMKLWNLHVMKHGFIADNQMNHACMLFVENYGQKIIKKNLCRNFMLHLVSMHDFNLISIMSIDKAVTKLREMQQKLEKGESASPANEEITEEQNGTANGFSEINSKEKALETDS

Regarding CGGGGGUGGGGGGUGGGGGUGGGU (structured_RNA) [PIM1 G4 RNA competitor], the binding result is listed as “binds”.

The values above are taken from article PMC6778522.
